Measured values from patent US7847064B2, “Methods and compositions for regulating gene expression in plant cells” (Donald Danforth Plant Science Center, priority 2004, dated 2010).

Key:
[1] = tested on: E fragment of the RTBV promoter; test: Co-transfection of E::GUS with RF2a and/or RF2b constructs in BY-2 protoplasts; assay type: cell-based, tobacco
Excerpt: Nevertheless, the E fragment may be further stimulated by co-transfecting the BY-2 protoplasts with constructs that encode the RF2a and/or RF2b transcription factors. In this Example, the E fragment was activated in tobacco BY-2 protoplasts by co-transfection of E::GUS with CsVMV::RF2b, CaMV 35S::RF2a and CaMV 35S::RF2a/CsVMV::RF2b using methods well-known in the art.

[2] = tested on: Box II, Box IIm1 and Box IIm2 elements; test: Surface Plasmon Resonance binding (BIAcore 2000); details: for DNA binding behavior (association and dissociation): 1:1 binding with a mass transfer model
Protocol: To compare the binding affinities of RF2a and RF2b with the Box II element and its mutants, real time Surface Plasmon Resonance (“SPR”) measurements were conducted using a BIAcore 2000 instrument. The binding affinities of RF2a and RF2b to these DNA targets were measured on chips on which biotin labeled-Box II, -Box IIm1 and -Box IIm2 elements were immobilized.
The association and de-association constants were determined using BIAevaluation 3.1 software—using 1:1 binding with a mass transfer model. […] Furthermore, the DNA binding behavior of RF2a and RF2b are quite different from each other. […] The differences in the affinity of RF2a to the Box II element and its mutants, however, are not as dramatic as the differences of RF2b, while the relative order of affinities to the different target elements is the same for both proteins (FIG. 8).

[3] = tested on: Nicotiana tabacum cv. Xanthi NN; test: Phenotype of transgenic tobacco plants overexpressing RF2a or RF2a mutants; assay type: in vivo; details: CaMV 35S promoter driven, T1 generation, greenhouse
Excerpt: (Yin et al., 1997; Petruccelli et al., 2001). […] Fifteen or more independent transgenic tobacco lines were developed with the constructs described below through Agrobacterium-mediated transformation.
Plasmids for Agrobacterium-mediated transformation—The fusion genes described above relating to the plant expression constructs comprising RF2a deletion mutants were released from pMON999-derived plasmids using NotI (blunted) and cloned into the binary vector pGA-E::GUS (Petruccelli et al., 2001) using the blunt HindIII site (downstream of a CaMV 35S promoter sequence). The final plasmids were named pGA-E::GUS/P-35S::ΔP, pGA-E::GUS/P-35S::ΔQ, pGA-E::GUS/P-35S::ΔPΔA and pGA-E::GUS/P-35S::ΔPΔQ. A plasmid encoding full-length RF2a, p35S::RF2a, was also constructed using the methods described herein.
Tobacco transformation—the plasmids described above were introduced into Agrobacterium tumefaciens strain LBA4404 and used for tobacco transformation. Leaf discs from Nicotiana tabacum cv. Xanthi NN were transformed with the various plasmids following the protocol of Horsch et al. (1988). At least 15 independent transgenic lines were produced with each gene construct. Transgenic plants were self-fertilized, and T1 seeds were collected. The T1 seeds were germinated on Murashige and Skoog medium (Murashige and Skoog, 1962) with kanamycin (100 mg/L) selection, and Kan^r seedlings were grown in a greenhouse for observation.
The phenotype caused by 35S::RF2a-ΔPΔA was similar to, but less severe than, the phenotype caused by 35S::RF2a-3Δ. […] (FIG. 19(C)).

[4] = tested on: transgenic rice and tobacco plants; details: Yin et al., 1997; Petruccelli et al., 2001; cited from earlier work
5XG-35S:GUS = test: MOF induced GUS activity in Arabidopsis plants with VGE, AGE or A5A5GE; assay type: in vivo, Arabidopsis thaliana; details: for activation of GUS expression, T2 generation plants: induced with MOF, plant lines #11, #11, #18; for activation of GUS expression, T1 generation plants: soil drench 1:10,000 dilution of MOF (61.3 μM) for 60 hours
Protocol: In this Example, Arabidopsis thaliana Col-0 plants were transformed with A. tumefaciens bacterium (strain GV3101) containing effector constructs comprising the CsVMV promoter operably linked to a nucleic acid sequence (SEQ ID NO:104) encoding the GE protein, plus (i) a nucleic acid sequence encoding the VP16 acidic activation domain of the herpes simplex virus, (ii) a sequence (SEQ ID NO:9) encoding the full RF2a acidic domain, or (iii) a sequence (2×SEQ ID NO:102) encoding a dimer of the A5 minimal acidic domain of RF2a (“A5A5”). The foregoing VP16 acidic domain-, RF2a acidic domain-, and A5A5 domain-encoding sequences were oriented to express such domains at the N-terminal of the GE protein. FIG. 28 refers to these constructs as VGE, AGE, and A5A5GE, respectively.
The foregoing effector constructs were prepared using standard DNA cloning and PCR procedures, and plasmids containing nucleic acid sequences encoding the VP16 acidic domain, the full length RF2a acidic domain (SEQ ID NO:6), the A5A5 domain (2×SEQ ID NO:101), and the GE domain (SEQ ID NO:103). Those of ordinary skill in the art will appreciate, however, that such effector sequences (and derivatives thereof) may also be constructed synthetically using standard procedures. The reporter construct described in Example 17 above, 5XG-35S:GUS, was used in this Example.
Next, plasmids containing the effector and reporter constructs described above were transferred by electroporation into A. tumefaciens strain GV3101. Agrobacterium isolates that contained the respective plasmids were used to transform A. thaliana Col-0 using a standard floral dip method (Clough and Bent, 1998). Seeds from the T1 generation were collected and germinated in Murashige and Skoog medium (Murashige and Skoog, 1962) containing a selective component (hygromycin B (30 μg/mL).
The seedlings that survived the selection were grown in soil in a growth chamber and allowed to self-fertilize. Next, T2 generation seeds were collected and germinated in Murashige and Skoog medium, which contained hygromycin B (30 μg/mL). The seedlings that survived the selection in a 3:1 segregation pattern were grown in soil in a growth chamber (under 12 hours of light/12 hours of dark per day, at 22° C., 50% humidity).
Analysis of T1 Generation Plants—In this Example, 22 T1 plants were analyzed for methoxyfenozide (MOF) induced gene expression. […] The supernatants were analyzed for GUS enzymatic activity as described in Example 16 above.
Analysis of T2 Generation Plants—A total of 16 different plants from a T2 generation plant line (having a segregation of the reporter/effector constructs of 3:1), wherein each plant contained a VGE, AGE, or A5A5GE effector construct, were induced with MOF and analyzed for GUS activity (as described above). […]

E(Box IIm1) promoter = test: BY-2 protoplast transient assay, reporter pE(Box IIm1)::GUS with RF2a/RF2b effectors; assay type: cell-based, tobacco; details: co-transfection, BY-2 protoplasts
Excerpt: (§1) To illustrate the biological relevance of the differences in the binding affinities described above, the pE::GUS, pE(Box IIm1)::GUS and pE(Box IIm2)::GUS constructs were used as reporters in BY-2 protoplast transient assays. In these assays, CaMV 35S::RF2a, CsVMV::RF2b and CaMV 35S::RF2a/CsVMV::RF2b were used as effectors. All results were normalized against the GFP internal control. The relative GUS activities of different sets of transfection assays are shown in FIG. 9 for the Box IIm1 element, and FIG. 10 for the Box IIm2 element.

E(Box IIm2) promoter = test: BY-2 protoplast transient assay, reporter pE(Box IIm2)::GUS with RF2a/RF2b effectors; assay type: cell-based, tobacco; details: co-transfection, BY-2 protoplasts, normalized against GFP
Excerpt: as §1

B1: RF2a: rice bZIP transcription factor, SEQ ID NO:4 (protein)
chain: MNREKSPIPGDGGDGLPPQATRRAGPPAAAAAAEYDISRMPDFPTRNPGHRRAHSEILSLPEDLDLCAAGGGDGPSLSDENDEELFSMFLDVEKLNSTCGASSEAEAESSSAAAHGARPKHQHSLSMDESMSIKAEELVGASPGTEGMSSAEAKKAVSAVKLAELALVDPKRAKRIWANRQSAARSKERKMRYIAELERKVQTLQTEATTLSAQLALLQRDTSGLTTENSELKLRLQTMEQQVHLQDALNDTLKSEVQRLKVATGQMANGGGMMMNFGGMPHQFGGNQQMFQNNQAMQSMLAAHQLQQLQLHPQAQQQQVLHPQHQQQQPLHPLQAQQLQQAARDLKMKSPMGGQSQWGDGKSGSSGN
modifications: This sequence was artificially derived and/or created by the inventors.
[1]
  activation of the E fragment by over-expression: activated above a strong background expression
[2]
  DNA binding behavior (association and dissociation): bind rapidly to the DNA target and slowly dissociates from the target
[2]; compared to RF2b, biotin labeled elements immobilized on chips
  binding affinities to the Box II, Box IIm1 and Box IIm2 elements: relatively higher binding affinities
[3]
  phenotype of transgenic tobacco plants: did not exhibit abnormal phenotypes
[4]
  appearance and reproduction of overexpressing plants: normal in appearance and reproduction

B2: AGE: SEQ ID NO: 6 (A) + SEQ ID NO: 103 (GE) (protein)
chain: MGHRRAHSEILSLPEDLDLCAAGGGDGPSLSDENDEELFSMFLDVEKLNSTCGASSEAEAESSSAAAKLLSSIEQACDICRLKKLKCSKEKPKCAKCLKNNWECRYSPKTKRSPLTRAHLTEVESRLERLEQLFLLIFPREDLDMILKMDSLQDIKALLTGLFVQDNVNKDAVTDRLASVETDMPLTLRQHRISATSSSEESSNKGQRQLTVSGGSRRISWPECVVPETQCAMKRKEKKAQKEKDKLPVSTTTVDDHMPPIMQCEPPPPEAARIHEVVPRFLSDKLLETNRQKNIPQLTANQQFLIARLIWYQDGYEQPSDEDLKRITQTWQQADDENEESDTPFRQITEMTILTVQLIVEFAKGLPGFAKISQPDQITLLKAFSSEVMMLRVARRYDAASDSVLFANNQAYTRDNYRKAGMAYVIEDLLHFCRCMYSMALDNIHYALLTAVVIFSDRPGLEQPQLVEEIQRYYLNTLRIYILNQLSGSARSSVIYGKILSILSELRTLGMQNSNMCISLKLKNRKLPPFLEEIWDVADMSHTQPPPILESPTNL
modifications: This sequence was artificially derived and/or created by the inventors.; A combination of the Gal4 protein and Ecdysone receptor
5XG-35S:GUS
  activation of GUS expression, T2 generation plants: activated GUS expression (in the T2 generation plants) in the presence of the MOF inducer as strong as VP16
  activation of GUS expression, T1 generation plants: activated GUS expression in the presence of the MOF inducer as strong as VP16

B3: A5A5GE: (2 × SEQ ID NO: 101 (A5)) + SEQ ID NO: 103 (GE) (protein, listed as Oryza sp.)
chain: EILSLPEDLDLCAAGGGDGPSLSDENDEEEILSLPEDLDLCAAGGGDGPSLSDENDEEKLLSSIEQACDICRLKKLKCSKEKPKCAKCLKNNWECRYSPKTKRSPLTRAHLTEVESRLERLEQLFLLIFPREDLDMILKMDSLQDIKALLTGLFVQDNVNKDAVTDRLASVETDMPLTLRQHRISATSSSEESSNKGQRQLTVSGGSRRISWPECVVPETQCAMKRKEKKAQKEKDKLPVSTTTVDDHMPPIMQCEPPPPEAARIHEVVPRFLSDKLLETNRQKNIPQLTANQQFLIARLIWYQDGYEQPSDEDLKRITQTWQQADDENEESDTPFRQITEMTILTVQLIVEFAKGLPGFAKISQPDQITLLKAFSSEVMMLRVARRYDAASDSVLFANNQAYTRDNYRKAGMAYVIEDLLHFCRCMYSMALDNIHYALLTAVVIFSDRPGLEQPQLVEEIQRYYLNTLRIYILNQLSGSARSSVIYGKILSILSELRTLGMQNSNMCISLKLKNRKLPPFLEEIWDVADMSHTQPPPILESPTNL
modifications: A combination of the Gal4 protein and Ecdysone receptor
5XG-35S:GUS
  activation of GUS expression, T2 generation plants: activated GUS expression (in the T2 generation plants) in the presence of the MOF inducer as strong as VP16
  activation of GUS expression, T1 generation plants: activated GUS expression in the presence of the MOF inducer as strong as VP16

B4: RF2b: bZIP transcription factor isolated through interaction with RF2a, SEQ ID NO:5 (protein)
chain: MQEPKHTDPAAMRGAHHRRARSEVAFRLPDDLDLGGGGAGAFDEIGSEDDLFSTFMDIEKISSGPAAAGGSDRDRAAETSSPPRPKHRHSSSVDGSGFFAAARKDAAASLAEVMEAKKAMTPEQLSDLAAIDPKRAKRILANRQSAARSKERKARYITELERKVQTLQTEATTLSAQLTLFQRDTTGLSAENAELKIRLQAMEQQAQLRDALNDALKQELERLKLATGEMTNSNETYSMGLQHVPYNTPFFPLAQHNAARQNGGTQLPPQFQPPRPNVPNHMLSHPNGLQDIMQQDPLGRLQGLDISKGPLVVKSESSSISASESSSTF
modifications: This sequence was artificially derived and/or created by the inventors.
[1]
  activation of the E fragment by over-expression: activated above a strong background expression
[2]
  DNA binding behavior (association and dissociation): binds slowly to the DNA target and releases from the target relatively quickly
E(Box IIm1) promoter
  activity of the E(Box IIm1) promoter compared with the E wild type promoter: as high as the expression of the E wild type promoter in BY-2 protoplasts
E(Box IIm1) promoter; normalized against GFP
  increase of promoter activity of E(Box IIm1): about 7 fold
E(Box IIm2) promoter
  increase of promoter activity of E(Box IIm2): about 5.8 fold
